Measurements published in the supplement of paper PMC7125110.
± gives the standard error. For some of these results: Variants at the floor of the assay were thinned out.

B1: glmS ribozyme (parent)
chain: AUAAAAGCGCCAGAACUACAGAAAUGUAGUUGACGAGGAGGAGGUUUAUCGAAUUUUCGGCGGAUGCCUCCAAA

How the values were obtained:
Conditions in all cases: with glucosamine-6-phosphate
[1] = variants of: B1; experiment: kcat; higher = faster cleavage; RNA array
Procedure, shortened: (§1)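 Glucosamine-6-phosphate (40 μM to 10 mM) in HEPES/KCl/Mg(OAc)2 buffer was flowed over sequenced MiSeq chips, and tiles were imaged over ~14 h. Barcoded ribozyme variants there had been transcribed in situ by E. coli RNA polymerase and were tracked through a hybridised Cy3 probe at 37 °C. One- or two-exponential decay fits to per-tile medians, normalised to baseline and to non-cleaving reference variants, gave kobs. kcat and KM came from weighted Michaelis–Menten fits across concentrations.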

[2] = variants of: B1; experiment: self-cleavage kobs at 10000 uM GlcN6P; higher = faster cleavage; RNA array
Procedure, shortened: as §1

[3] = variants of: B1; experiment: KM; higher = weaker cofactor use; RNA array
Procedure, shortened: as §1

[4] = variants of: B1; experiment: self-cleavage kobs at 2500 uM GlcN6P; higher = faster cleavage; RNA array
Procedure, shortened: as §1

[5] = variants of: B1; experiment: self-cleavage kobs at 640 uM GlcN6P; higher = faster cleavage; RNA array
Procedure, shortened: as §1

[6] = variants of: B1; experiment: self-cleavage kobs at 160 uM GlcN6P; higher = faster cleavage; RNA array
Procedure, shortened: as §1

[7] = variants of: B1; experiment: self-cleavage kobs at 40 uM GlcN6P; higher = faster cleavage; RNA array
Procedure, shortened: as §1

Variant	kcat [1] [s⁻¹]	self-cleavage kobs at 10000 uM GlcN6P [2] [s⁻¹]	KM [3] [µM]	self-cleavage kobs at 2500 uM GlcN6P [4] [s⁻¹]	self-cleavage kobs at 640 uM GlcN6P [5] [s⁻¹]	self-cleavage kobs at 160 uM GlcN6P [6] [s⁻¹]	self-cleavage kobs at 40 uM GlcN6P [7] [s⁻¹]
U56A G60A	2.59e-05 ± 2.9e-06	2.33e-05 ± 1.2e-05					
G41C U46G	0.000114 ± 3.4e-06	9.41e-05 ± 1e-05	2060 ± 210	6.37e-05 ± 1.1e-05			
C16G U57A	5.68e-05 ± 5.7e-06	4.85e-05 ± 8.9e-06	1570 ± 780	3.99e-05 ± 1.7e-05			
G13U C68G	2.36e-05 ± 6.5e-06						
G13A U56C	0.000422 ± 7.9e-06	0.00021 ± 3.7e-05		8.37e-05 ± 2e-05			
C67A C68A	3.56e-05 ± 6.8e-06	3.61e-05 ± 9.6e-06		2.46e-05 ± 1e-05	5.08e-05 ± 1.2e-05		
C16U A64U	9.47e-05 ± 1.3e-05	8e-05 ± 6.6e-06		7.64e-05 ± 1.2e-05			
C16G U49G	6.89e-05 ± 1.1e-05	5.76e-05 ± 1.1e-05		5.02e-05 ± 1.3e-05			
C34G C67U	< 1e-05				< 1e-05		
A14U A48G	1.29e-05 ± 5.7e-06					< 1e-05	
A12C G29C	0.00327 ± 0.00068	0.00271 ± 0.00022	2770 ± 820	0.00139 ± 0.00023	0.000508 ± 5.3e-05	0.000193 ± 2.7e-05	6.03e-05 ± 6.2e-06
G13C G66U	< 1e-05		766 ± 350			< 1e-05	
A14C G29C	0.00095 ± 0.00038	0.000438 ± 6.2e-05		0.000139 ± 2.5e-05	6.24e-05 ± 1.5e-05		
G13U U30C	0.000509 ± 0.00014	0.000354 ± 4.9e-05	3530 ± 1600	0.000253 ± 3.1e-05	6.12e-05 ± 1.2e-05	3.75e-05 ± 1e-05	
A33G U69A	3.15e-05 ± 1.4e-05					4.13e-05 ± 1.5e-05	
A48G U65A	< 1e-05					< 1e-05	
A52U U56G	0.000175 ± 4.1e-05	0.000122 ± 2.5e-05	5090 ± 2000	5.36e-05 ± 9.7e-06	2.83e-05 ± 1.1e-05		
A36G C68G	1.27e-05 ± 2.3e-06						
G13C U54A	0.000202 ± 4.2e-05	0.000108 ± 7.3e-06	8810 ± 3600	4.26e-05 ± 8.3e-06			

Variant	kcat [1] [s⁻¹]	self-cleavage kobs at 10000 uM GlcN6P [2] [s⁻¹]	KM [3] [µM]	self-cleavage kobs at 2500 uM GlcN6P [4] [s⁻¹]	self-cleavage kobs at 640 uM GlcN6P [5] [s⁻¹]	self-cleavage kobs at 160 uM GlcN6P [6] [s⁻¹]	self-cleavage kobs at 40 uM GlcN6P [7] [s⁻¹]
G13C U54C	0.000135 ± 1.9e-05	0.000107 ± 1.7e-05	2870 ± 1000	5.89e-05 ± 1.2e-05			
A14U A15U	0.00245 ± 0.00036	0.00202 ± 0.00018	2240 ± 500	0.00125 ± 0.00014	0.000602 ± 7.4e-05	0.000141 ± 1.6e-05	5.71e-05 ± 7.8e-06
A39U G41U	0.00058 ± 0.00011	0.000489 ± 6.8e-05	1710 ± 530	0.000402 ± 6.4e-05	0.000138 ± 1.7e-05	6.52e-05 ± 1.2e-05	
U55C C68U	3.04e-05 ± 1.7e-06	2.9e-05 ± 9.1e-06					
U30C C70U	0.000529 ± 0.00014	0.000536 ± 5.9e-05	1890 ± 790	0.000261 ± 2.9e-05	0.000125 ± 1e-05	6.03e-05 ± 7.8e-06	
G13C U31A	0.000405 ± 2e-05	0.000314 ± 4.2e-05	3100 ± 280	0.00017 ± 3.3e-05	7.16e-05 ± 1.3e-05		
U31G G32C	0.000616 ± 8.5e-05	0.000405 ± 8.2e-05	5520 ± 1100	0.000186 ± 2.9e-05	6.65e-05 ± 1.1e-05		
A36U C71U	< 1e-05				< 1e-05		
U31G C50U	2.22e-05 ± 1.4e-06						< 1e-05
U45A C58A	0.00117 ± 0.00038	0.000803 ± 0.00016		0.000822 ± 0.00019	0.000188 ± 3.8e-05		
A39G G40U U55C C71A	0.00728 ± 0.0021	0.00562 ± 0.001	2200 ± 930	0.00448 ± 0.00083	0.00178 ± 0.00043	0.000368 ± 8.6e-05	0.000207 ± 4.1e-05
G13U G38C	< 1e-05	< 1e-05			< 1e-05		
A14G U69G	0.000107 ± 2.2e-05	0.000113 ± 1.8e-05		0.000103 ± 2e-05	0.000175 ± 3.5e-05	5.73e-05 ± 1.7e-05	8.24e-05 ± 1.9e-05
G51C U69G	1.7e-05 ± 4.2e-06						
C11U A53U U54C C58A	1.72e-05 ± 2.3e-06				< 1e-05		
U69A C70U	6.79e-05 ± 5.4e-06	6.03e-05 ± 7.8e-06		7.15e-05 ± 7.1e-06	4.97e-05 ± 8.2e-06	3.52e-05 ± 1e-05	
G13A G66U	1.72e-05 ± 6.7e-06						< 1e-05
G66A C68U	0.00532 ± 0.0011	0.00549 ± 0.0008	983 ± 280	0.00284 ± 0.00078	0.00267 ± 0.00085	0.000531 ± 0.00015	0.000228 ± 2.5e-05
C61G U69C C70G	5.75e-05 ± 1.9e-05			8.71e-05 ± 4.1e-05	6.36e-05 ± 2.5e-05	5.95e-05 ± 2.1e-05	
